Results: publication doi:10.1101/2023.04.06.535920 (bioRxiv, 2023)

Molecular target: T1, Fc-tagged recombinant mouse FGL1 full length (mouse, UniProt Q71KU9 23-314)
T1 sequence (looked up): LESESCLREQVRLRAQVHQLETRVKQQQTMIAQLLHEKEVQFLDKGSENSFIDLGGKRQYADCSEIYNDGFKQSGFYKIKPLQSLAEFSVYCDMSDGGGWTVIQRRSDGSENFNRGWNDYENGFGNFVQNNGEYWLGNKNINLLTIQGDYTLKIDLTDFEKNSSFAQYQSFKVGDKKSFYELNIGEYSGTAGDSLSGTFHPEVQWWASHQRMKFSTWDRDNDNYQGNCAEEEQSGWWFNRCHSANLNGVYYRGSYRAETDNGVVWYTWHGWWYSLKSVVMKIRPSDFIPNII
Assay: pull-down

binding result: binds
B1: hBMP6 (ligand, human, UniProt P22004 375-513, looked up)
chain: SASSRRRQQSRNRSTQSQDVARVSSASDYNSSELKTACRKHELYVSFQDLGWQDWIIAPKGYAANYCDGECSFPLNAHMNATNHAIVQTLVHLMNPEYVPKPCCAPTKLNAISVLYFDDNSNVILKKYRNMVVRACGCH
